Results as given in PMC3938326.

Target: T1, hPh1 FCS domain (Polyhomeotic homolog 1) (human, UniProt P78364 783-828)
T1 chain: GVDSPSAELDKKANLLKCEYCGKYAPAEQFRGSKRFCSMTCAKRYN
Assay: NMR HSQC titration

Binder: GGGCACGCGUAUUGCCCUAGUGGCCGGCGUGCCC (structured_RNA) [34nt RNA]
- Kd: 3 ± 1.1 mM
